Source: article PMC4826291

Biological target: BG505 SOSIP.664 gp140 trimer (HIV-1 (strain BG505)) (UniProt Q2N0S6)
Assay: negative-stain EM

Substance: CH235 Fab
- stoichiometry N (Fabs per trimer): 1
